This is an account of results in patent publication US20040132136A1 (ZymoGenetics, published 2004).

This data set deals with the molecule itself. In words: western blot of BHK conditioned media, reducing against non-reducing conditions. The method, then:
Following selection for stable cell transfectants, media isolated from pools was analyzed by western blot under reducing and non-reducing conditions using a Ztgfβ-9 antibody or an anti-EE epitope tag antibody. […] Under non-reducing conditions, Ztgfβ-9 protein migrated as at 49 kDa species. […] C-terminal EE tagged human Ztgfβ-9 expressed in BHK cells was also anti-EE affinity purified and its N-terminal sequence determined.

B1: Human Ztgfβ-9 protein (ligand)
chain: AGAPRAGRRPARPRGCADRPEELLEQLYGRLAAGVLSAFHHTLQLGPREQARNASCPAGGRPADRRFRPPTNLRSVSPWAYRISYDPARYPRYLPEAYCLCRGCLTGLFGEEDVRFRSAPVYMPTVVLRRTPACAGGRSVYTEAYVTIPVGCTCVPEPEKDADSINSSIDKQGAKLLLGPNDAPAGP
notes: Expressed in BHK cells both with and without a C-terminal Glu-Glu tag; It migrated at 29 kDa reduced and 49 kDa non-reduced, read as a disulfide cross-linked homodimer
Regarding B1, the binding result was “binds”.
